Measurements taken from patent publication US20060135432A1 (NEUROGENEX, published 2006).
[ ]: non-standard residue; d: D form. dPhe(4-Cl) = N[C@H](Cc1ccc(Cl)cc1)C(=O)O; d2Nal = N[C@H](Cc1ccc2ccccc2c1)C(=O)O; dCit = NC(=O)NCCC[C@@H](N)C(=O)O; d3Pal = N[C@H](Cc1cccnc1)C(=O)O; pGlu = O=C1CC[C@@H](C(=O)O)N1

T1: rat GnRHR (rat, UniProt P30969 1-327)
T1 sequence (looked up): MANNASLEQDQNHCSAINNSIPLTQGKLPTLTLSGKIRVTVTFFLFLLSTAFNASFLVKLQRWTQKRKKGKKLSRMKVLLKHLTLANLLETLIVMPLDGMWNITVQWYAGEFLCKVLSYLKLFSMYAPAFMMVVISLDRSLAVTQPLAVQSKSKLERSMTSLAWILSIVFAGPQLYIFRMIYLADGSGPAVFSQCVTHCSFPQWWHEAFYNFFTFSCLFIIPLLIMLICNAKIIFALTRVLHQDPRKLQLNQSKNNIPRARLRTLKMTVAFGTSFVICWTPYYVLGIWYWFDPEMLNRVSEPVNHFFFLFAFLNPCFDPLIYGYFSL


How the values were obtained:
[1] = target: T2, Primate GnRH-2 receptor (Primate (from a CV-1 cell genome)); assay: cell-based or functional assay
[2] = target: T2, Primate GnRH-2 receptor; assay: cell-based or functional assay; remark: listed apart in the source
[3] = target: bfGnRHR-2 (bullfrog); assay: cell-based or functional assay
[4] = target: bfGnRHR-2 (bullfrog); assay: cell-based or functional assay; remark: listed apart in the source
[5] = target: T3, bfGnRHR-3 (bullfrog); assay: displacement of I^125-GnRH-2 from membranes of GH3 cells expressing bfGnRHR-3
T3 construct: whole, on cells; also called bullfrog GnRH receptor 3; bfGnRH receptor
Experimental: (§1) After 48 hours, the cells were homogenized to obtain cellular membranes, which were then dissolved in binding buffer (40 mM Tris, pH 7.4, 2 mM MgCl₂).

[6] = target: T3, bfGnRHR-3; assay: cell-based or functional assay
[7] = target: bfGnRHR-1 (bullfrog); assay: cell-based or functional assay
[8] = target: bfGnRHR-2 (bullfrog); assay: cell-based or functional assay; remark: listed apart in the source
[9] = target: bfGnRHR-1 (bullfrog); assay: cell-based or functional assay; remark: listed apart in the source
[10] = target: T1, rat GnRHR; assay: cell-based or functional assay
[11] = target: T1, rat GnRHR; assay: cell-based or functional assay; remark: listed apart in the source
[12] = target: T1, rat GnRHR; assay: displacement of I^125-GnRH-2 from membranes of GH3 cells expressing rat GnRHR
Experimental: as §1

| Binder | Emax (fold-induction), luciferase activation [1] [fold-induction] | Ratio^a (EC50 relative to the EC50 of GnRH-2), luciferase activation [1] | log IC50 [5] | Log EC50, inositol phosphate production in GH3 cells expressing the receptor [6] | Log EC50, inositol phosphate production in GH3 cells expressing the receptor [7] | Log EC50, inositol phosphate production in GH3 cells expressing the receptor [8] | further results |
| --- | --- | --- | --- | --- | --- | --- | --- |
| [pGlu]HWSH[dK]WYPG-NH2 (SMILES NCCCC[C@@H](NC(=O)[C@H](Cc1c[nH]cn1)NC(=O)[C@H](CO)NC(=O)[C@H](Cc1c[nH]c2ccccc12)NC(=O)[C@H](Cc1c[nH]cn1)NC(=O)[C@@H]1CCC(=O)N1)C(=O)N[C@@H](Cc1c[nH]c2ccccc12)C(=O)N[C@@H](Cc1ccc(O)cc1)C(=O)N1CCC[C@H]1C(=O)NCC(N)=O) [[D-Lys^6]GnRH-2] | 11.7 | 0.66 ratio to GnRH-2 |  |  |  |  |  |
| [pGlu]HWSH[dA]YWPG-NH2 (SMILES C[C@@H](NC(=O)[C@H](Cc1c[nH]cn1)NC(=O)[C@H](CO)NC(=O)[C@H](Cc1c[nH]c2ccccc12)NC(=O)[C@H](Cc1c[nH]cn1)NC(=O)[C@@H]1CCC(=O)N1)C(=O)N[C@@H](Cc1ccc(O)cc1)C(=O)N[C@@H](Cc1c[nH]c2ccccc12)C(=O)N1CCC[C@H]1C(=O)NCC(N)=O) [[D-Ala^6, Tyr^7, Trp^8]GnRH-2] | 12.8 | 6.61 ratio to GnRH-2 |  |  |  |  |  |
| [pGlu]HWSL[dA]WYPG-NH2 (SMILES CC(C)C[C@H](NC(=O)[C@H](CO)NC(=O)[C@H](Cc1c[nH]c2ccccc12)NC(=O)[C@H](Cc1c[nH]cn1)NC(=O)[C@@H]1CCC(=O)N1)C(=O)N[C@H](C)C(=O)N[C@@H](Cc1c[nH]c2ccccc12)C(=O)N[C@@H](Cc1ccc(O)cc1)C(=O)N1CCC[C@H]1C(=O)NCC(N)=O) [[Leu^5, D-Ala^6]GnRH-2] | 6.22 | 11 ratio to GnRH-2 |  |  |  |  |  |
| [pGlu]HWSH[dA]LYPG-NH2 (SMILES CC(C)C[C@H](NC(=O)[C@@H](C)NC(=O)[C@H](Cc1c[nH]cn1)NC(=O)[C@H](CO)NC(=O)[C@H](Cc1c[nH]c2ccccc12)NC(=O)[C@H](Cc1c[nH]cn1)NC(=O)[C@@H]1CCC(=O)N1)C(=O)N[C@@H](Cc1ccc(O)cc1)C(=O)N1CCC[C@H]1C(=O)NCC(N)=O) [[D-Ala^6, Leu^7]GnRH-2] | 9.04 | 2.51 ratio to GnRH-2 |  |  |  |  |  |
| [pGlu]HWSY[dA]WLPG-NH2 (SMILES CC(C)C[C@H](NC(=O)[C@H](Cc1c[nH]c2ccccc12)NC(=O)[C@@H](C)NC(=O)[C@H](Cc1ccc(O)cc1)NC(=O)[C@H](CO)NC(=O)[C@H](Cc1c[nH]c2ccccc12)NC(=O)[C@H](Cc1c[nH]cn1)NC(=O)[C@@H]1CCC(=O)N1)C(=O)N1CCC[C@H]1C(=O)NCC(N)=O) [[Tyr^5, D-Ala^6, Leu^8]GnRH-2] | 7.35 | 3.01 ratio to GnRH-2 |  |  |  |  |  |
| Ac-[d2Nal][dPhe(4-Cl)][d3Pal]SY[dCit]WYP[dA]-NH2 [Trptorelix-1] |  |  |  |  |  |  | Log IC50, inhibition of GnRH-2-induced c-fos-luc luciferase activity [2]: -5.74 log IC50 (concentration unit not printed); inhibition of GnRH-2-induced IP production, sensitivity compared with Cetrorelix [3]: 100 fold more sensitive than Cetrorelix; Log IC50, inhibition of GnRH-2-induced inositol phosphate production in GH3 cells expressing the receptor [4]: -8.1 log IC50 (concentration unit not printed) |
| EHWSYGLRPG (pyroGlu at 1; C-terminal amide (GlyNH2); radiolabelled with I^125 where used as tracer in Example 4, also called mGnRH; mammalian GnRH) [GnRH-1] |  |  | -7.32 log IC50 (concentration unit not printed) | -8.42 log EC50 (concentration unit not printed) | -8.52 log EC50 (concentration unit not printed) | -5.59 log EC50 (concentration unit not printed) | inositol phosphate production, concentration needed compared with GnRH-2 [3]: ~1000 fold higher concentration than GnRH-2 |
| Ac-[d2Nal][dPhe(4-Cl)][d3Pal]SY[dCit]LRP[dA]-NH2 [Cetrorelix] |  |  |  |  |  |  | Log IC50, inhibition of GnRH-2-induced inositol phosphate production in GH3 cells expressing the receptor [4]: -6.43 log IC50 (concentration unit not printed) |
| [pGlu]HWSH[dA]WYPG-NH2 (SMILES C[C@@H](NC(=O)[C@H](Cc1c[nH]cn1)NC(=O)[C@H](CO)NC(=O)[C@H](Cc1c[nH]c2ccccc12)NC(=O)[C@H](Cc1c[nH]cn1)NC(=O)[C@@H]1CCC(=O)N1)C(=O)N[C@@H](Cc1c[nH]c2ccccc12)C(=O)N[C@@H](Cc1ccc(O)cc1)C(=O)N1CCC[C@H]1C(=O)NCC(N)=O, Chemically synthesised by AnyGen Co) [[D-Ala^6]GnRH-2] | 11.8 | 0.38 ratio to GnRH-2 | -9.83 log IC50 (concentration unit not printed) | -9.89 log EC50 (concentration unit not printed) | -9.91 log EC50 (concentration unit not printed) | -9.91 log EC50 (concentration unit not printed) | inositol phosphate production, concentration needed compared with GnRH-2 [9]: ~8 fold lower concentration than GnRH-2; inositol phosphate production, sensitivity compared with GnRH-1 [10]: 10 fold lower sensitivity than GnRH-1; Log EC50, inositol phosphate production in GH3 cells expressing the receptor [11]: -8.49 log EC50 (concentration unit not printed); log IC50 [12]: -6.85 log IC50 (concentration unit not printed) |
| [pGlu]HWSHGWYPG-NH2 (also: I-125 radiolabelled form used as tracer, Purchased from Sigma Co; also called gonadotropin-releasing hormone-2; cGnRH-II) [GnRH-2] | 11.7 | 1 ratio to GnRH-2 | -8.63 log IC50 (concentration unit not printed) | -9.51 log EC50 (concentration unit not printed) | -9.41 log EC50 (concentration unit not printed) | -8.98 log EC50 (concentration unit not printed) | inositol phosphate production, sensitivity compared with GnRH-1 [10]: 10 fold lower sensitivity than GnRH-1; Log EC50, inositol phosphate production in GH3 cells expressing the receptor [11]: -8.06 log EC50 (concentration unit not printed); log IC50 [12]: -6.08 log IC50 (concentration unit not printed) |
| [pGlu]HWSH[dW]WYPG-NH2 (SMILES NC(=O)CNC(=O)[C@@H]1CCCN1C(=O)[C@H](Cc1ccc(O)cc1)NC(=O)[C@H](Cc1c[nH]c2ccccc12)NC(=O)[C@@H](Cc1c[nH]c2ccccc12)NC(=O)[C@H](Cc1c[nH]cn1)NC(=O)[C@H](CO)NC(=O)[C@H](Cc1c[nH]c2ccccc12)NC(=O)[C@H](Cc1c[nH]cn1)NC(=O)[C@@H]1CCC(=O)N1) [[D-Trp^6]GnRH-2] | 11.2 | 1.2 ratio to GnRH-2 | -8.1 log IC50 (concentration unit not printed) | -9.22 log EC50 (concentration unit not printed) | -9.4 log EC50 (concentration unit not printed) | -9.21 log EC50 (concentration unit not printed) | Log EC50, inositol phosphate production in GH3 cells expressing the receptor [11]: -7.92 log EC50 (concentration unit not printed); log IC50 [12]: -7.01 log IC50 (concentration unit not printed) |
| Ac-[d2Nal][dPhe(4-Cl)][d3Pal]SH[dCit]WYP[dA]-NH2 (SMILES CC(=O)N[C@H](Cc1ccc2ccccc2c1)C(=O)N[C@H](Cc1ccc(Cl)cc1)C(=O)N[C@H](Cc1cccnc1)C(=O)N[C@@H](CO)C(=O)N[C@@H](Cc1c[nH]cn1)C(=O)N[C@H](CCCNC(N)=O)C(=O)N[C@@H](Cc1c[nH]c2ccccc12)C(=O)N[C@@H](Cc1ccc(O)cc1)C(=O)N1CCC[C@H]1C(=O)N[C@H](C)C(N)=O) [Trptorelix-2] |  |  |  |  |  |  | Log IC50, inhibition of GnRH-2-induced c-fos-luc luciferase activity [2]: -6.19 log IC50 (concentration unit not printed) |
